This is an account of results in article PMC12544700, “Identification of a Small Secretoneurin Derivative That Inhibits CaMKIIδ Activity” (Journal of Cellular and Molecular Medicine, 2025).

For test [1], the target named is biotinylated SN‐db‐short [SN (7–26, L17F, V20F)] (human). Kind of test: SPR; Biacore X100, room temperature; biotin‐ahx‐SN‐db‐short immobilised on a streptavidin chip (58 RU); His‐CaMKIIδ‐T287D 0.06–1 μM injected, single‐cycle; HEPES running buffer with 2.5 mM Ca2+; 1:1 Langmuir fit; average of three experiments.
The target of a further test is CaMKIIδ (Homo sapiens) (UniProt Q13557). The settings on record: cited from earlier work.
CaMKIIδ (Homo sapiens), sequence (Q13557 2-499, stated change not applied): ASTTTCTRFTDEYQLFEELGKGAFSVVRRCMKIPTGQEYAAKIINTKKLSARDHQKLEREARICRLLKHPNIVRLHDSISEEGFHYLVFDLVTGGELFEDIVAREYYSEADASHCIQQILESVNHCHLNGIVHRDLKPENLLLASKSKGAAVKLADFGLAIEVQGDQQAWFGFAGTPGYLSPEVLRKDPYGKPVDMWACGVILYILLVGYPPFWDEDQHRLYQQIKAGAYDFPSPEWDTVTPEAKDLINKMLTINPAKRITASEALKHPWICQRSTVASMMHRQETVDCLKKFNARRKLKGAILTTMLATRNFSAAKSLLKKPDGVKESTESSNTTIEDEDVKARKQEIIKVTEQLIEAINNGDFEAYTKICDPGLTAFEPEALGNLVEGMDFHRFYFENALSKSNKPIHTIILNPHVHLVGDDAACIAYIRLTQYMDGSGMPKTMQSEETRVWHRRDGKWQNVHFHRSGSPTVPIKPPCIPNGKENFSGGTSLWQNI

Secretoneurin, sequence (P13521 182-214): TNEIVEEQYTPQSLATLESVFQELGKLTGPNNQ

In test [1], “recombinant His‐CaMKIIδ‐T287D (species not named for the experiment) (from UniProt P15791 1-533) (enzyme)” yielded a Kd of 68 nM, a koff of 0.00057 s⁻¹ and a kon of 14000 M⁻¹ s⁻¹.
Take Secretoneurin (from UniProt P13521): in the test with CaMKIIδ (Homo sapiens), the Kd was 80 nM.
